What all share (assay): MST
Common to all, as to conditions: 0.5 mM Mg2+; MST: 10 mM Tris-HCl pH 8.5, 0.5 mM MgSO4, 50 mM KCl, 10 mM (NH4)2SO4, 0.05% Tween 20; 1 nM oligo; 10 min at 55 °C, measured at 25 °C

The subject of series [1] is Tt72 pol D78A/S616A (Thermus thermophilus MAT72 phage vB_Tt72).
The test system of series [2] is Tt72 DNA polymerase WT (Thermus thermophilus MAT72 phage vB_Tt72).
Series [3] concerns Tt72 pol D78A/D615A (Thermus thermophilus MAT72 phage vB_Tt72).
Series [4] concerns Tt72 pol D15A (Thermus thermophilus MAT72 phage vB_Tt72).
For series [5], the system named is Tt72 pol D184A (Thermus thermophilus MAT72 phage vB_Tt72).
For series [6], the system named is Tt72 pol D78A/E389A (Thermus thermophilus MAT72 phage vB_Tt72).
Series [7] relates to Tt72 pol E17A (Thermus thermophilus MAT72 phage vB_Tt72).
The test system of series [8] is Tt72 pol D78A/D384A (Thermus thermophilus MAT72 phage vB_Tt72).
In series [9] the test system is Tt72 pol D78A (exo-) (Thermus thermophilus MAT72 phage vB_Tt72).
For series [10], the system named is Tt72 pol Y180A (Thermus thermophilus MAT72 phage vB_Tt72).
In series [11] the test system is Tt72 pol L27A (Thermus thermophilus MAT72 phage vB_Tt72).

Data on one sequence can be found in paper PMC9324360.

The term Kd denotes the equilibrium constant for the complex coming apart. Lower therefore signals tighter binding. Turning to “TGGCTGCTTCTAAGCCAACATCCT / CTAGTGAGGATGTTGGCTTAGAAGCAGCCA [polTt72-Cy5/polTt72-long primer/template]”, the dissociation constant (Kd) was 129 nM in series [1]; 2 nM in series [2]; 78 nM in [3]; 232 nM in series [4]; 144 nM in series [5]; 68 nM in [6]. Moreover, the Kd in [7] is 529 nM; in series [8], 100 nM; in [9], 109 nM; in series [10], 229 nM; in [11] it was 32 nM.
